Test results: US20260144239A1, “Immune Cell-Engrafted Non-Human Animals and Non-Human Animal Models” (LAPIX Therapeutics, Inc., priority 2022, published 2026)

Assays:
engrafted mice [1] = assay: Immunogenicity in engrafted mice (NRGS mice with human immune system), antibody titers by ELISA; assay type: in vivo, mouse
Method: (§1) Three healthy human donors were used to generate three engrafted mice designated HD1, HD2 and HD3. On Day 29 and Day 36, HD1, HD2 and HD3 were administered FVIII. The same amounts of antigen were administered to three C57B/6 control mice on the same date. Two weeks later (on Day 43), blood from each mouse was collected. Titers of mouse anti-FVIII antibodies, human anti-FVIII antibodies, mouse anti-GAA antibodies and human anti-GAA antibodies were measured using ELISA (FIGS. 8A-8B).
(§2) Three healthy human donors were used to generate three engrafted mice designated HD1, HD2 and HD3. On Day 29 and Day 36, HD1, HD2 and HD3 were administered GAA. The same amounts of antigen were administered to three C57B/6 control mice on the same date. Two weeks later (on Day 43), blood from each mouse was collected. Titers of mouse anti-GAA antibodies, human anti-GAA antibodies, mouse anti-FVIII antibodies and human anti-FVIII antibodies were measured using ELISA (FIGS. 8C-8D).
(§3) Healthy human donors were used to generate eight engrafted mice. […] The same amount of antigen was administered to three C57B/6 control mice on the same date. Two weeks later (on Day 43), blood from each mouse was collected.
(§4) Healthy human donors were used to generate 11 engrafted mice. […] The same amount of antigen was administered to three C57B/6 control mice on the same date. Two weeks later (on Day 43), blood from each mouse was collected.

engrafted mice [2] = assay: Human CD20 on B cells of engrafted mice that developed antibodies (flow cytometry); assay type: in vivo, mouse; details: CD20+/CD19+ cells (FIGS. 9A-9C)
Source text: Presence of human CD20 was detected on B cells of mice that developed antibodies to different biologics. CD20 is expressed on activated, antibody-producing B cells.

C57B/6 control mice = assay: Immunogenicity in C57B/6 control mice, antibody titers by ELISA; assay type: in vivo, mouse
Method: as §1, §2, §3, §4

humans = details: in vivo; cited from earlier work

For “GAA: biologic antigen administered to engrafted and C57B/6 mice; abbreviation not spelled out in the text”, the “percent of engrafted mice that developed human antibodies to the administered antigen” value (engrafted mice [1]; 12 (FVIII), 14 (GAA), eight (IFN-β), 11 (AAV9) engrafted mice, antigen Day 29 and Day 36, blood Day 43, ELISA) was 100%, the “engrafted mice that developed mouse antibodies to the administered antigen” value (engrafted mice [1]; antigen Day 29 and Day 36, blood Day 43, ELISA) was “none” and the “mouse antibody titer to the antigen not administered (anti-FVIII after GAA, anti-GAA after FVIII)” value (engrafted mice [1]; engrafted mice) was “none”. For the same substance, the “human antibody titer to the antigen not administered (anti-FVIII after GAA, anti-GAA after FVIII)” value (engrafted mice [1]; engrafted mice, specificity control of titer assay) was “None”, the “engrafted mice that developed human antibodies to the administered antigen (number of mice)” value (engrafted mice [1]; three engrafted mice (HD1, HD2, HD3), antigen on Day 29 and Day 36, blood on Day 43, ELISA) was “all three” and the “observed immunogenicity rate in the engrafted mice” value (engrafted mice [1]; three engrafted mice, human antibodies to administered antigen, antigen Day 29 and Day 36, blood Day 43) was “about 100%”. The “CD20-expressing B cells after antigen exposure” value (engrafted mice [2]) was “had CD20-expressing B cells”, the “mouse antibody titer to the antigen not administered (anti-FVIII after GAA, anti-GAA after FVIII)” value (C57B/6 control mice; C57B/6 control mice) was “none” and the “human antibody titer to the antigen not administered (anti-FVIII after GAA, anti-GAA after FVIII)” value (C57B/6 control mice; C57B/6 control mice, specificity control of titer assay) was “None”. The “percent of C57B/6 mice that developed mouse antibodies to the administered antigen” value (C57B/6 control mice; six (FVIII), 5 (GAA), three (IFN-β), three (AAV9) C57B/6 mice) was 100%, the “percent of C57B/6 mice that developed mouse antibodies to the administered antigen” value (C57B/6 control mice; three C57B/6 mice, first experiment (FIG. 8B, 8D)) was 100% and the “clinically reported immunogenicity rate in humans” value (humans) was 89-100%.
